Measured values from article PMC3149346.
Blank lines part the entries; values can stand above or below the substance they belong to.

Legend:
Assay in all cases: AUC
[1] = molecular target: LZ5 K309C/C335A mutant of the Nek2 leucine zipper (UniProt P51955)
[2] = molecular target: Nek2 leucine zipper construct LZ0 (residues 290-360) (UniProt P51955)
[3] = molecular target: Nek2 core leucine zipper construct LZ5 (residues 299-343) (UniProt P51955)

stoichiometry N [1]: 2
Substance: LZ5 K309C/C335A mutant of the Nek2 leucine zipper (from UniProt P51955 299-343) (domain or fragment)

stoichiometry N [2]: 2
Substance: Nek2 leucine zipper construct LZ0 (residues 290-360) (from UniProt P51955 290-360) (domain or fragment)

stoichiometry N [3]: 2
Substance: Nek2 core leucine zipper construct LZ5 (residues 299-343) (from UniProt P51955 299-343) (domain or fragment)
